Among the data in PMC5549943 are stoichiometry N values, retold here.

“And” between values parts separate entries of the source, which are not always exact repeats. Identical values can stand only once.

The target of this assay is Hepatitis B Virus core protein Cp149 dimer (Hepatitis B Virus). Kind of assay: resistive-pulse sensing.

On to “Hepatitis B Virus core protein Cp149 dimer (domain or fragment)”, for which the stoichiometry N was 90 dimers and 120 dimers.
